Reference: the Immune Epitope Database (IEDB)

Key:
Assay in all cases: IEDB peptide-MHC binding, purified MHC/competitive/radioactivity; ≥ and ≤ were set here for values at or beyond the usual limits of such assays
Conditions in all cases: source organism: Bordetella pertussis
HLA-B*07:02 = molecular target: HLA-B*07:02
HLA-B*53:01 = molecular target: HLA-B*53:01
HLA-B*44:03 = molecular target: HLA-B*44:03
HLA-B*57:01 = molecular target: HLA-B*57:01

Sequence: RVAPPAVAL
- IC50 (HLA-B*07:02): 0.349 µM

Sequence: MHTIASILL
- IC50 (HLA-B*53:01): 7.4 µM

Sequence: AQGKALLYR
- IC50 (HLA-B*44:03): ≥ 70.1 µM

Sequence: PASANTLLL
- IC50 (HLA-B*07:02): 15.7 µM

Sequence: RASASRARI
- IC50 (HLA-B*57:01): ≥ 70.4 µM

Sequence: VVETAQPLP
- IC50 (HLA-B*53:01): 69.9 µM

Sequence: SGEGRVNIG
- IC50 (HLA-B*53:01): 3.18 µM

Sequence: WTFHAGYRY
- IC50 (HLA-B*57:01): 1.4 µM

Sequence: GATRAVDSL
- IC50 (HLA-B*07:02): 69.6 µM
